± gives the half width of the 95% confidence interval.
Tests used:
[1] = folding stability dG unfold from trypsin proteolysis; higher = more stable
How it was run: (§1)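 Unfolding free energy was derived, per protease or combined, by relating Bayesian-fitted K50 values from sequencing counts to a sequence-predicted unfolded-state K50 and a shared folded-state K50. The underlying digests exposed cysteine-free mini-proteins under 80 residues, in a PA-tagged cDNA display construct, to trypsin and chymotrypsin at 11 threefold-diluted concentrations and to a no-protease condition. A filter kept only designs with AlphaFold2 dimer inter-PAE above 15.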

[2] = folding stability dG unfold from chymotrypsin proteolysis; higher = more stable
How it was run: as §1

[3] = folding stability dG unfold (combined trypsin and chymotrypsin); higher = more stable
How it was run: as §1

Sequence	folding stability dG unfold [1] [kcal/mol]	folding stability dG unfold [2] [kcal/mol]	folding stability dG unfold [3] [kcal/mol]
SAGGSAGGSAGKIKIKNEDGSEYEVKKIEITIKNENGEKKKIKLEIELPKAKEVKIEKKKSAGGSAGGSAGG [r11_804_TrROS_Hall]	-1.2 ± 0.83	0.32 ± 0.087	-0.13 ± 0.29
SAGGSAGGSAGKKIKYRITIYNKKTGKTIEIEIEMSEDEIKKIAEELAKKYNVKIKIEPVSAGGSAGGSAGG [r11_515_TrROS_Hall]	3.71 ± 0.13	4.79 ± 0.13	4.56 ± 0.18
SAGGSAGGSAGKKIPFGKNVKILEIEEIDPDIIIIKFENSVFIVRILPNGEVKVIKFDIDSAGGSAGGSAGG [r11_612_TrMRF]	1.83 ± 0.042	2.4 ± 0.027	2.33 ± 0.09
SAGGSAGGSAGKKIPKKIIPKINLKVELVKSKIYYDKKKKKIVKIEYEFKITYPNGFKATSAGGSAGGSAGG [r11_890_TrMRF]	1.44 ± 0.053	1.97 ± 0.11	1.83 ± 0.2
SAGGSAGGSAGKKKIKLLIFDKKTNKLYVVEVELTKDGKIKITKIKEIYEVKPGEKLKLLSAGGSAGGSAGG [r11_750_TrROS_Hall]	0.981 ± 0.044	1.3 ± 0.26	1.19 ± 0.25
SAGGSAGGSAGKKKKKKKKKPPVTLTVEIEIEINGKKYIAKKKVKLNKDGKLEVEVEIYPSAGGSAGGSAGG [r11_555_TrROS_Hall]	2.4 ± 0.37	3.23 ± 0.065	3.13 ± 0.41
SAGGSAGGSAGKKKKKPKKKYVFIVIKINLSEEELKKLAEELGIDKVFKNENGYAVLVVKSAGGSAGGSAGG [r11_64_TrROS_Hall]	2.19 ± 0.12	3.56 ± 0.059	3.15 ± 0.13
SAGGSAGGSAGKKKTITIKIPGMSKEEIAKLIKEKFGPNVKITEIKENKDNLLEITVEVESAGGSAGGSAGG [r11_580_TrROS_Hall]	2.79 ± 0.22	2.79 ± 0.19	2.99 ± 0.24
SAGGSAGGSAGKKKVKLVEFDEETGYALLEVEDEETGETKLVLVPMTAEELEALPNIEVLSAGGSAGGSAGG [r17_46_TrROS_Hall]	2.14 ± 0.24	1.91 ± 0.079	2.08 ± 0.24
SAGGSAGGSAGKKKVLMTVDEIEKKLGKKIKPGSLVLVEVENGKVKKIEIFDVKKKPKKKSAGGSAGGSAGG [r11_616_TrROS_Hall]	0.943 ± 0.09	1.07 ± 0.076	1 ± 0.21
SAGGSAGGSAGKKKYKIVSIEIERNKDGNSLTVKIKLENGKELTLTFPTEEDLKNLKIKASAGGSAGGSAGG [r11_711_TrROS_Hall]	1.59 ± 0.1	3.104 ± 0.028	2.78 ± 0.075
SAGGSAGGSAGKKPIKEVTITLPPGAKIVKIEIEKTEDGKYILKITVEVDGKLYEFTFELSAGGSAGGSAGG [r11_1013_TrROS_Hall]	3.13 ± 0.25	4.27 ± 0.14	3.98 ± 0.29
SAGGSAGGSAGKKTYKLVIPVKPDKTVEEIAEEVKKLLGPGSKVEVEEKEDGFATVYVESSAGGSAGGSAGG [r17_20_TrMRF]	0.292 ± 0.04	0.656 ± 0.093	0.555 ± 0.097
SAGGSAGGSAGKKYKVVEVKENKDGTVELVVENENGEKKKITLSKEELDKLKAGDTVELKSAGGSAGGSAGG [r11_943_TrROS_Hall]	2.01 ± 0.11	2.7 ± 0.057	2.47 ± 0.14
SAGGSAGGSAGKLRYRYRFDTVLLEVTYDPSTGEVVEVKVIPLSPLPPLTPEELYRLLEDSAGGSAGGSAGG [r11_320_TrMRF]	2.25 ± 0.053	3.071 ± 0.018	2.82 ± 0.056
SAGGSAGGSAGKMYKLTIEKDGKEIEIIVSEDELKEIAKKLGLPPNAKIKVEKVSPEELKSAGGSAGGSAGG [r17_395_TrROS_Hall]	2.21 ± 0.095	3.8 ± 0.14	3.27 ± 0.17
SAGGSAGGSAGKPIIKVKIIEKKDGYLKIEIEDEKTGETKTITLKPGQKLEIKLELVKEPSAGGSAGGSAGG [r11_738_TrROS_Hall]	1.92 ± 0.15	1.33 ± 0.064	1.62 ± 0.11
SAGGSAGGSAGKPITADEVAERVARRLRELFGPDYDINVKVVKVLPGDYVLVDVEITGDLSAGGSAGGSAGG [r11_153_TrMRF]	2.27 ± 0.032	2.287 ± 0.021	2.28 ± 0.044

Sequence	folding stability dG unfold [1] [kcal/mol]	folding stability dG unfold [2] [kcal/mol]	folding stability dG unfold [3] [kcal/mol]
SAGGSAGGSAGKPTLKLVLKFDSPEQAKAAAEALAKAGYKVKVELKEYPDGLYLVVTVEPSAGGSAGGSAGG [r11_677_TrROS_Hall]	3.29 ± 0.12	4.41 ± 0.13	4.2 ± 0.2
SAGGSAGGSAGKTIVLKTPEAIKNLKEGDVIKLKDGKKYKIVKVEYDKETNYFTIEIEKESAGGSAGGSAGG [r11_316_TrROS_Hall]	2.96 ± 0.13	3.75 ± 0.17	3.54 ± 0.17
SAGGSAGGSAGKTVQIWIPPDEITPEALKSLAREGWKIKPIEIRRNPEDGWISITIELKPSAGGSAGGSAGG [r11_345_TrROS]	0.597 ± 0.076	0.451 ± 0.36	0.619 ± 0.25
SAGGSAGGSAGKVIKLEELKKKFPNMSPEELAAFFKKLGYKVEVVKVGDVPYVFLSPGEKSAGGSAGGSAGG [r11_707_TrMRF]	2.2 ± 0.065	3.676 ± 0.02	3.33 ± 0.049
SAGGSAGGSAGKVTLTIPFTNEDGTKYIAEFTFDELEVEEDVEIKIVSLGENFDLVLKPESAGGSAGGSAGG [r11_733_TrMRF]	1.47 ± 0.069	1.67 ± 0.041	1.63 ± 0.1
SAGGSAGGSAGKVVLAKAKVTPPDGSEYEFDLAIEVPDDVVLVVGLHFDYPDQVDFVFEGSAGGSAGGSAGG [r11_781_TrMRF]	1.28 ± 0.03	1.14 ± 0.017	1.2 ± 0.072
SAGGSAGGSAGKVVLYLPGDGTAWVLKVGDGEAVLEAEPEKVEELLEKIPGTEAVPVPGLSAGGSAGGSAGG [r11_57_TrMRF]	0.652 ± 0.026	-0.0929 ± 0.23	0.425 ± 0.12
SAGGSAGGSAGKVVVDFGKPALAEAFGVPLSEIENMSEEEALALAKPLVEEGVVDEVVLSSAGGSAGGSAGG [r11_80_TrMRF]	1.26 ± 0.048	0.524 ± 0.042	0.88 ± 0.099
SAGGSAGGSAGKYEVTKIEVVKNEDGSEYLRVTIKVDGKEITITIPLEDAENIKIEIKPPSAGGSAGGSAGG [r17_64_TrROS_Hall]	2.69 ± 0.086	3.59 ± 0.036	3.38 ± 0.12
SAGGSAGGSAGLELTVGDVPVDVYVDPDTERALAYFPLFNRVAIVDLPTGKVYVVPLDDILSAGGSAGGSAG [r3_137_TrMRF]	1.25 ± 0.04	1.11 ± 0.14	1.15 ± 0.076
SAGGSAGGSAGLIVTHPDGGVTTLRLTLTFTFEGPVGPPKTVTFEFTLTVAPNGTEVTLESAGGSAGGSAGG [r11_271_TrMRF]	3.34 ± 0.16	5.11 ± 0.11	4.72 ± 0.27
SAGGSAGGSAGLKLLEKELRVLTYDPETGSLSESTLRVPVLLVPPVPVPVLDPNGGLTLASAGGSAGGSAGG [r11_307_TrMRF]	-0.696 ± 0.27	0.407 ± 0.14	0.143 ± 0.11
SAGGSAGGSAGLLPIEELLKKNPEPVTFMVKDNDTLYRIEITPKDGKWTIEIEPLPGMKPSAGGSAGGSAGG [r11_549_TrROS]	0.756 ± 0.021	1.49 ± 0.077	1.2 ± 0.043
SAGGSAGGSAGLPPGDKVTISIPIVIPDGYMINSHITIDPDNGETEIEIQIYPLKDPDALSAGGSAGGSAGG [r11_695_TrROS]	2.1 ± 0.21	2.12 ± 0.11	2.11 ± 0.14
SAGGSAGGSAGLTLEVELPDGKPFPVEVLEVDPGEEDVVVIRVKVKVGDKEYEVTLVLDLSAGGSAGGSAGG [r17_536_TrMRF]	1.94 ± 0.095	1.76 ± 0.08	1.9 ± 0.15
SAGGSAGGSAGMAIGLEEILARLDPERIISVEVDEENPLVTVKLRPPSGETKTITFKLSLSAGGSAGGSAGG [r17_374_JUSTAS]	1.21 ± 0.03	0.669 ± 0.11	1.06 ± 0.07
SAGGSAGGSAGMDIDILTETEVTRYPDGTVVTTTTTRDSSGEVLSTTTTTTTVTPATPAASAGGSAGGSAGG [r11_452_JUSTAS]	2.24 ± 0.15	2.6 ± 0.057	2.47 ± 0.069

— the supplement of paper PMC12764529
